Test results as given in patent US20140286957A1 (Teva, published 2014).
Read-outs that look alike come from different tables or passages of the source.

T1: Human CD1d on cells (human, UniProt P15813 20-335)
T1 sequence (looked up): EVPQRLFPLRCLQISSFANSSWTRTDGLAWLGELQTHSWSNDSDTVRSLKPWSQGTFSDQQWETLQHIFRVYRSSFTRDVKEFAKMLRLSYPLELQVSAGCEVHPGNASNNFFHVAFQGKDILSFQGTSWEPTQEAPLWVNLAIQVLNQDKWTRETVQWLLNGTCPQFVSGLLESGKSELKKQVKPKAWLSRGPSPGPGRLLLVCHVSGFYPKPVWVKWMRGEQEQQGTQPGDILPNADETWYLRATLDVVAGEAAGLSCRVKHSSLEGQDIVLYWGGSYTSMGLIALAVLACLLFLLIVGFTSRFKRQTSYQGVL


Legend:
[1] = target: T2, Human CD1d/β2M (human, UniProt P15813 20-301; P61769 21-119); test: direct ELISA, plate coated with 1 µg/mL human CD1d, HRP anti-human kappa detection
T2 construct: also called hCD1d; recombinant human CD1d

[2] = target: T1, Human CD1d on cells; test: cell-based or functional assay
[3] = target: T1, Human CD1d on cells; test: cell-based or functional assay; remark: listed apart in the source
[4] = target: T2, Human CD1d/β2M; test: SPR, Protein A purified IgG

EC50 (read off the curve) [1] [ng/mL] | NKT IFN-γ EC50 (moDC) [2] [ng/mL] | NKT IL-13 EC50 (moDC) [2] [ng/mL] | NKT IFN-γ EC50 (moDC) [3] [ng/mL] | NKT IL-4 EC50 (moDC) [3] [ng/mL] | Kd [4] [nM] | Binder
~60 | – | – | – | – | – | FAb 401.11.165 (Fab, V domains shown, Made by papain digest of the IgG4) VH: EVQLVESGGGLVQPGRSLRLSCAASGFTFDDYAMHWVRQAPGKGLEWVATIIWNSAIIGYADSVKGRFIVSRDNAKNSLYLQMNSLRAEDTALYYCAKDMCSSGGCPDGYFDSWGQGTLVTVSS VL: DIQMTQSPSSVSASVGDRVTITCRASQHISSWLAWYQQKPGKAPKLLIYAASSLQSGVPSRFSGSGSGTDFTLTISSLQPEDFATYYCQQANRFPLTFGGGTKLEIKR
– | 0.244 | 0.189 | 24.7 | 26.8 | 0.198 | 402.8.60 (antibody, IgG4, V domains shown, IgG4 (S228P)) VH: QVQLQESGPGLVRPSETLSLTCAVYGGSFSGYYWSWIRQPPGKGLEWIGEINHSGSTNYNPSLKSRVTISVDTSKNQFSLKLSSVTAADTAVYYCARGEIYDFYNSYMDVWGKGTTVTVSS VL: QTVVTQEPSLTVSPGGTVTLTCASSSGAVSSGNFPNWFQQKPGQAPRALIFSASNKHSWTPARFSGSLLGGKAVLTLSGVQPEDEAEYYCLLYFGDTQLGVFGGGTKVTVLG
– | – | – | 14.3 | 0.721 | 0.357 | 402.8.86 (antibody, IgG4, V domains shown, IgG4 (S228P)) VH: QVQLQESGPGLVKPSETLSLTCAVYGGSFSGYYWSWIRQPPGKGLEWIGEINHAGSTNYNPSLKSRVTISVDTSKNQFSLKLSSVTAADTAVYYCARGEIYDFYNSYMDVWGKGTTVTVSS VL: QTVVTQEPSLTVSPGGTVTLTCASSSGAVSSGNFPNWFQQKPGQAPRALIFSASNKHSWTPARFSGSLLGGKAVLTLSGVQPEDEAEYYCLLYFGDTQLGVFGGGTKVTVLG
– | – | – | 25.9 | 1.01 | 0.344 | 402.8.87 (antibody, IgG4, V domains shown, IgG4 (S228P)) VH: QVQLQESGPGLVKPSETLSLTCAVYGGSFSGYYWSWIRQPPGKGLEWIGEINHAGSTNYNPSLKSRVTISVDTSKNQFSLKLSSVTAADTAVYYCARGEIYDFYKSYMDVWGKGTTVTVSS VL: QTVVTQEPSLTVSPGGTVTLTCASSSGAVSSGNFPNWFQQKPGQAPRALIFSASNKHSWTPARFSGSLLGGKAVLTLSGVQPEDEAEYYCLLYFGDTQLGVFGGGTKVTVLG
– | 0.516 | 0.663 | 30.6 | 0.593 | 0.587 | 402.8.84 (antibody, IgG4, V domains shown, IgG4 (S228P)) VH: QVQLQESGPGLVKPSETLSLTCAVYGGSFSGYYWSWIRQPPGKGLEWIGEINHAGSTNYNPSLKSRVTISVDTSKNQFSLKLSSVTAADTAVYYCARGEIYDFYKSYLDVWGKGTTVTVSS VL: QTVVTQEPSLTVSPGGTVTLTCASSSGAVSSGNFPNWFQQKPGQAPRALIFSASNKHSWTPARFSGSLLGGKAVLTLSGVQPEDEAEYYCLLYFGDTQLGVFGGGTKVTVLG
